In PMC9949068 (bioRxiv, 2023):
Numbering of substitutions follows the chain as printed. Names and notes keep the numbering of the source.

B1: human GLS2 (K253A), residues 38-602 (enzyme)
chain: HHLSEAAAQGRETPHSHQPQHQDHDSSESGMLSRLGDLLFYTIAEGQERIPIHKFTTALKATGLQTSDPRLRDCMSEMHRVVQESSSGGLLDRDLFRKCVSSNIVLLTQAFRKKFVIPDFEEFTGHVDRIFEDVKELTGGKVAAYIPQLAKSNPDLWGVSLCTVDGQRHSVGHTKIPFCLQSCVKPLTYAISISTLGTDYVHKFVGKEPSGLRYNALSLNEEGIPHNPMVNAGAIVVSSLIKMDCNKAEKFDFVLQYLNKMAGNEYMGFSNATFQSEKETGDRNYAIGYYLKEKKCFPKGVDMMAALDLYFQLCSVEVTCESGSVMAATLANGGICPITGESVLSAEAVRNTLSLMHSCGMYDFSGQFAFHVGLPAKSAVSGAILLVVPNVMGMMCLSPPLDKLGNSHRGTSFCQKLVSLFNFHNYDNLRHCARKLDPRREGAEIRNKTVVNLLFAAYSGDVSALRRFALSAMDMEQKDYDSRTALHVAAAEGHIEVVKFLIEACKVNPFAKDRWGNIPLDDAVQFNHLEVVKLLQDYQDSYTLSETQAEAAAEALSKENLESMV
B2: human GLS2 (N308A), residues 38-602 (enzyme)
chain: B1 chain with A216K, N271A

Legend:
cryo-EM structure = molecular target: the molecule itself; test: cryo-EM structure
negative stain EM = molecular target: the molecule itself; test: negative stain EM

Protein | binding result (cryo-EM structure) | binding result (negative stain EM)
B1 | binds | 
B2 |  | binds
